Assay results as given in patent US20050153287A1, “Nr3b nmda receptor subunit compositions and related methods” (priority 2001, published 2005).

Columns and labels:
Type in all cases: cell-based
[1] = test system: NMDA receptor (NR1 and NR2A); assay: Glutamate-induced whole-cell current in transfected HEK293 cells
Experimental: (§1) To express the receptors in HEK293 cells, the cells were transfected with 1 μg of each plasmid unless otherwise stated (Shi et al., 1999). The NR1 and NR2A were tagged with green fluorescent protein (GFP) on the extracellular domain to facilitate the identification of transfected cells. […] NMDA receptor mediated current was recorded in the presence of 10 μM glycine. AMPA receptor current was recorded as described (Shi et al., 1999). Pipette solutions contained (in mM) Cs-methanesulfonate 110; CsCl 30; NaCl 4; HEPES 10; EGTA 5; CaCl2 0.5 adjusted to pH 7.3 with CsOH. 1 mM glutamate (for NMDA receptor) or kainate (for AMPA receptor) was pressure (1.0 PSI) applied through a puffer pipette positioned ˜10 μm to the cells. A program based on Igor (WaveMetrics, Inc., Lake Oswego, Oreg.) was used to acquire data on a Macintosh computer.

[2] = test system: AMPA receptor (GluR2-(R586Q)); assay: Kainate-induced AMPA receptor current in transfected HEK293 cells; details: coexpression of NR3B with GluR2-(R586Q) in HEK293 cells
Experimental: as §1

[3] = test system: NR1 and NR2A tagged with GFP; assay: Expression levels of GFP-tagged NR1 and NR2A by fluorescence intensity; details: presence or absence of NR3B; NR1 and NR2A individually expressed with NR3B
Experimental: as §1
The electrophysiological properties of NR3B were tested by expressing NR3B in HEK293 cells. A conventional NMDA receptor channel is formed by a heteromeric combination of NR1, which is a key subunit for functionality, and at least one NR2 subunit, which is modulatory (Dingledine et al., 1999). […] NR1 and NR2A tagged with GFP were individually expressed with NR3B and their expression levels were measured by the fluorescence intensity. The statistical significance in this figure was assessed by Kolmogorov-Smirnov test. […]

B1: NR3B: mouse NR3B NMDA receptor subunit polypeptide (SEQ ID NO: 2), expressed from cDNA plasmid in HEK293 cells (protein, listed as Mus musculus)
chain: MECVQTLWLSLALALARGSWVVRGHPQPCGVPTRAGASVRLAALLPRAPAARARVLAALATPSPRLPHNLSLELVAVASPTRDPASLARGLCQVLAPPGVVASITFPEARPELRLLQFLAAATETPVLSVLRREVRAPLGAPTPFHLQLDWASPLETILDVLVSLVRAHAWEDIALVLCRVRDPSGLVTLWTSRASQAPKFVLDLSQLDSGNDSLRATLALLGTLEGGGTPVSAAVLLGCSTAHAHEVLEAAPPGPQWLLGTPLPAEALPKTGLPPGVLVLGETGQPSLEAAVHDMVELVARALSSMALMHPERALLPAAVNCEDLKTGGSESTARTLARFLSNTSFQGRTGAVWVAGSSQVHVSRHFKVWSLRRDPLGAPAWATVGSWQDGQLDFQPGAAALRVPSPSGTQARPKLRVVTLVEHPFVFTRESDEDGQCPAGQLCLDPGTNDSARLDALFTALENGSVPRTLRRCCYGYCIDLLERLAEDLAFDFELYIVGDGKYGALRDGRWTGLVGDLLAGRAHMAVTSFSINSARSQVVDFTSPFFSTSLGIMVRTRDTASPIGAFMWPLHWSMWVGVFAALHLTALFLTLYEWRSPYGLTPRGRNRGTVFSYSSALNLCYAILFGRTVSSKTPKCPTGRFLMNLWAIFCLLVLSSYTANLAAVMVGDKTFEELSGIHDPKLHHPSQGFRFGTVWESSAEAYIKASFPEMHAHMRRHSAPTTPHGVAMLTSDPPKLNAFIMDKSLLDYEVSIDADCKLLTVGKPFAIEGYGIGLPQNSPLTSNLSEFISRYKSSGFIDLLHDKWYKMVPCGKRVFAVTETLQMGVYHLSGLFVLLCLGLGSALLTSLGEHVFYRLVLPRIRRGNKLQYWLHTSQKIHRALNTGPPEGQQERAEQECSGPKEEQPAADGAGRWRRVRRAVVERERRVRFLLEPGEAGGDHPWLCSNGPGVQAELRELELRIEAARERLRSALLRRGELRAQLGDGTRLRPLRLLHAAPAES
- glutamate-induced whole-cell current ([1]; NR3B coexpressed with NR1 and NR2A in HEK293 cells, compared with NR1 and NR2A alone): markedly depressed
- formation of electrophysiologically functional channels ([1]; NR3B coexpressed with NR1 only (n=6)): did not result in electrophysiologically functional channels
- formation of electrophysiologically functional channels ([1]; NR3B coexpressed with NR2A only (n=5)): did not result in electrophysiologically functional channels
- current amplitude with increasing amount of NR3B plasmid ([1]; NR3B plasmid 0, 1 and 3 μg versus other subunits (each 1 μg), +60 mV, Mg2+-free solution): concomitant decrease in current amplitude
- sensitivity of the remaining current to Mg2+ block ([1]; NR3B with NR1 and NR2A, presence or absence of 1 mM Mg2+): not affected
- formation of electrophysiologically functional channels ([1]; expression of NR3B alone in HEK293 cells (n=6)): did not result in electrophysiologically functional channels
- AMPA receptor mediated current [2]: unchanged
- expression levels of NR1 and NR2A (GFP fluorescence) [3]: did not show any significant difference
